The data set relates to Escherichia coli TOP10. Nature of the data set: shrunken log2 fold change of peptide-encoding DNA abundance (4.5 h post-induction vs induction); higher = less antimicrobial activity (less host growth inhibition). The conditions noted are these: time post-induction: 4.5 h; library: site-saturation at positions 5, 18, 19, 20.
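Also: peptides expressed intracellularly from a pBAD plasmid library in pooled LB shake-flask culture, induced with 0.3% L-arabinose, DNA abundance read by NGS, three biological replicates, DESeq2 with apeglm shrinkage.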

For RRIRQRPPRLPRPRPRPIMEPRP, the “shrunken log2 fold change” value was -0.0496.

As to RRIRQRPPRLPRPRPRPWLWPRP, the “shrunken log2 fold change” value worked out at 0.145.

For the sequence RRIRPRPPRLPRPRPRPPLRPRP, the “shrunken log2 fold change” value came to 0.336.

Regarding RRIRARPPRLPRPRPRPFSEPRP, the “shrunken log2 fold change” value was -0.122.

Take RRIRKRPPRLPRPRPRPDRWPRP: the “shrunken log2 fold change” value came to 0.683.

Turning to RRIRERPPRLPRPRPRPQAEPRP, the “shrunken log2 fold change” value is -0.0297.

On to RRIRSRPPRLPRPRPRPQSDPRP, for which the “shrunken log2 fold change” value is -0.0499.

For the sequence RRIRERPPRLPRPRPRPISQPRP, the “shrunken log2 fold change” value was -0.058.

Take RRIRCRPPRLPRPRPRPRKGPRP: the “shrunken log2 fold change” value stood at 0.201.

RRIRKRPPRLPRPRPRPKASPRP: the “shrunken log2 fold change” value amounted to 0.0517.

Consider RRIRVRPPRLPRPRPRPAILPRP, for which the “shrunken log2 fold change” value is -0.204.

On to RRIRGRPPRLPRPRPRPARMPRP, for which the “shrunken log2 fold change” value came to 0.613.

Take RRIRQRPPRLPRPRPRPAILPRP: the “shrunken log2 fold change” value is 0.312.

RRIRYRPPRLPRPRPRPCTNPRP: the “shrunken log2 fold change” value amounted to 0.0527.

With RRIRCRPPRLPRPRPRPMKQPRP, the “shrunken log2 fold change” value was -0.436.

Take RRIRTRPPRLPRPRPRPPCCPRP: the “shrunken log2 fold change” value turned out to be 0.00432.

Regarding RRIRDRPPRLPRPRPRPNEKPRP, the “shrunken log2 fold change” value was -0.0281.

With RRIRGRPPRLPRPRPRPIHGPRP, the “shrunken log2 fold change” value was -0.161.

As for RRIRKRPPRLPRPRPRPQTEPRP, the “shrunken log2 fold change” value was -0.0229.

For the sequence RRIRFRPPRLPRPRPRPCLAPRP, the “shrunken log2 fold change” value is -0.245.

With RRIRFRPPRLPRPRPRPCSRPRP, the “shrunken log2 fold change” value is -0.22.

On to RRIRCRPPRLPRPRPRPDITPRP, for which the “shrunken log2 fold change” value is -0.022.

Regarding RRIRWRPPRLPRPRPRPMHMPRP, the “shrunken log2 fold change” value is -0.287.

As for RRIRPRPPRLPRPRPRPFRAPRP, the “shrunken log2 fold change” value is 0.116.

RRIRIRPPRLPRPRPRPNWPPRP: the “shrunken log2 fold change” value was -0.146.

As to RRIRMRPPRLPRPRPRPLMQPRP, the “shrunken log2 fold change” value is 0.29.

Consider RRIRARPPRLPRPRPRPDWDPRP, for which the “shrunken log2 fold change” value stood at 0.341.

On to RRIRFRPPRLPRPRPRPTIAPRP, for which the “shrunken log2 fold change” value is -0.27.

As for RRIRARPPRLPRPRPRPCPFPRP, the “shrunken log2 fold change” value was -0.154.

Regarding RRIRPRPPRLPRPRPRPCPTPRP, the “shrunken log2 fold change” value came out at 0.0557.

For the sequence RRIRKRPPRLPRPRPRPQYPPRP, the “shrunken log2 fold change” value stood at 0.131.

In the case of RRIRLRPPRLPRPRPRPWWLPRP, the “shrunken log2 fold change” value is -0.0334.

For RRIRKRPPRLPRPRPRPENHPRP, the “shrunken log2 fold change” value was -0.229.

Turning to RRIRSRPPRLPRPRPRPIFHPRP, the “shrunken log2 fold change” value was -0.29.

RRIRLRPPRLPRPRPRPQNHPRP: the “shrunken log2 fold change” value is -0.683.

Turning to RRIRRRPPRLPRPRPRPEEHPRP, the “shrunken log2 fold change” value was determined as 0.107.

RRIRVRPPRLPRPRPRPIANPRP: the “shrunken log2 fold change” value worked out at 0.0572.

Regarding RRIRVRPPRLPRPRPRPMELPRP, the “shrunken log2 fold change” value is -0.135.

On to RRIRNRPPRLPRPRPRPTKCPRP, for which the “shrunken log2 fold change” value is -0.16.

For RRIRVRPPRLPRPRPRPVNDPRP, the “shrunken log2 fold change” value is -0.201.

For the sequence RRIRPRPPRLPRPRPRPPCWPRP, the “shrunken log2 fold change” value amounted to 0.468.

Regarding RRIRCRPPRLPRPRPRPSSKPRP, the “shrunken log2 fold change” value is -0.48.

For RRIRERPPRLPRPRPRPQPHPRP, the “shrunken log2 fold change” value was -0.261.

As to RRIRFRPPRLPRPRPRPFQAPRP, the “shrunken log2 fold change” value was -0.91.

RRIRFRPPRLPRPRPRPYHMPRP: the “shrunken log2 fold change” value was -0.128.

Turning to RRIRLRPPRLPRPRPRPSIWPRP, the “shrunken log2 fold change” value was -0.548.

As for RRIRPRPPRLPRPRPRPATEPRP, the “shrunken log2 fold change” value is 0.0977.

On to RRIRSRPPRLPRPRPRPDVIPRP, for which the “shrunken log2 fold change” value was determined as 0.0141.

Take RRIRWRPPRLPRPRPRPTEKPRP: the “shrunken log2 fold change” value is 0.103.

Regarding RRIRVRPPRLPRPRPRPGRFPRP, the “shrunken log2 fold change” value was determined as 0.277.

For the sequence RRIRNRPPRLPRPRPRPNNGPRP, the “shrunken log2 fold change” value was -0.0309.

Take RRIRPRPPRLPRPRPRPEITPRP: the “shrunken log2 fold change” value was determined as 0.175.

Turning to RRIRERPPRLPRPRPRPNHAPRP, the “shrunken log2 fold change” value was -0.239.

For the sequence RRIRTRPPRLPRPRPRPLMHPRP, the “shrunken log2 fold change” value was -0.454.

In the case of RRIRTRPPRLPRPRPRPDGMPRP, the “shrunken log2 fold change” value stood at 0.0749.

Regarding RRIRLRPPRLPRPRPRPDRIPRP, the “shrunken log2 fold change” value was -0.123.

Consider RRIRVRPPRLPRPRPRPQKNPRP, for which the “shrunken log2 fold change” value was -0.217.

For RRIRDRPPRLPRPRPRPSDIPRP, the “shrunken log2 fold change” value is -0.0124.

RRIRERPPRLPRPRPRPCAMPRP: the “shrunken log2 fold change” value was -0.0091.

Regarding RRIRTRPPRLPRPRPRPQMCPRP, the “shrunken log2 fold change” value came out at 0.0024.

Turning to RRIRVRPPRLPRPRPRPREYPRP, the “shrunken log2 fold change” value amounted to 0.0223.

For RRIRSRPPRLPRPRPRPYVNPRP, the “shrunken log2 fold change” value is -0.283.

On to RRIRRRPPRLPRPRPRPMAWPRP, for which the “shrunken log2 fold change” value came out at 0.0237.

As for RRIRSRPPRLPRPRPRPYHIPRP, the “shrunken log2 fold change” value was -0.845.

RRIRIRPPRLPRPRPRPGKYPRP: the “shrunken log2 fold change” value was -0.394.

As for RRIRGRPPRLPRPRPRPQMEPRP, the “shrunken log2 fold change” value came out at 0.473.

Take RRIRLRPPRLPRPRPRPTNVPRP: the “shrunken log2 fold change” value was -0.165.

As to RRIRDRPPRLPRPRPRPPKHPRP, the “shrunken log2 fold change” value came out at 0.0331.

As to RRIRERPPRLPRPRPRPSAWPRP, the “shrunken log2 fold change” value was 0.0177.

For the sequence RRIRTRPPRLPRPRPRPPMHPRP, the “shrunken log2 fold change” value is 0.141.

Consider RRIRARPPRLPRPRPRPRYIPRP, for which the “shrunken log2 fold change” value was -0.0261.

As for RRIRWRPPRLPRPRPRPKTNPRP, the “shrunken log2 fold change” value was determined as 0.239.

In the case of RRIRPRPPRLPRPRPRPWRGPRP, the “shrunken log2 fold change” value amounted to 0.344.

RRIRFRPPRLPRPRPRPYRNPRP: the “shrunken log2 fold change” value is -0.00237.

With RRIRRRPPRLPRPRPRPVRHPRP, the “shrunken log2 fold change” value is 0.247.

Consider RRIRCRPPRLPRPRPRPEAAPRP, for which the “shrunken log2 fold change” value turned out to be 1.11.

With RRIRGRPPRLPRPRPRPADYPRP, the “shrunken log2 fold change” value is 0.025.

Regarding RRIRPRPPRLPRPRPRPIWTPRP, the “shrunken log2 fold change” value was -0.262.

With RRIRFRPPRLPRPRPRPKDWPRP, the “shrunken log2 fold change” value stood at 0.233.

Regarding RRIRQRPPRLPRPRPRPAGEPRP, the “shrunken log2 fold change” value was determined as 0.156.

Turning to RRIRPRPPRLPRPRPRPGDIPRP, the “shrunken log2 fold change” value is -0.027.

RRIRWRPPRLPRPRPRPDMKPRP: the “shrunken log2 fold change” value came to 0.0231.

For RRIRNRPPRLPRPRPRPIKRPRP, the “shrunken log2 fold change” value turned out to be 0.0699.

For RRIRQRPPRLPRPRPRPLRLPRP, the “shrunken log2 fold change” value was 0.655.

Take RRIRYRPPRLPRPRPRPNMMPRP: the “shrunken log2 fold change” value is -0.645.

In the case of RRIRNRPPRLPRPRPRPNDWPRP, the “shrunken log2 fold change” value was determined as 0.0943.

Regarding RRIRTRPPRLPRPRPRPAEWPRP, the “shrunken log2 fold change” value was 0.0396.

In the case of RRIRVRPPRLPRPRPRPNSRPRP, the “shrunken log2 fold change” value stood at 0.00966.

For RRIRYRPPRLPRPRPRPVSRPRP, the “shrunken log2 fold change” value was -0.0816.

For the sequence RRIRGRPPRLPRPRPRPMWQPRP, the “shrunken log2 fold change” value is 0.418.

Turning to RRIRCRPPRLPRPRPRPYILPRP, the “shrunken log2 fold change” value is -1.53.

As to RRIRGRPPRLPRPRPRPDCDPRP, the “shrunken log2 fold change” value is 0.841.

On to RRIRCRPPRLPRPRPRPAPDPRP, for which the “shrunken log2 fold change” value was 0.576.

Take RRIRDRPPRLPRPRPRPDKYPRP: the “shrunken log2 fold change” value is -0.582.

For RRIRERPPRLPRPRPRPWCLPRP, the “shrunken log2 fold change” value is -0.746.

Consider RRIRIRPPRLPRPRPRPSPAPRP, for which the “shrunken log2 fold change” value is -0.11.

In the case of RRIRFRPPRLPRPRPRPPCPPRP, the “shrunken log2 fold change” value came to 0.46.

As to RRIRPRPPRLPRPRPRPPYLPRP, the “shrunken log2 fold change” value is -0.376.

For the sequence RRIRSRPPRLPRPRPRPYCDPRP, the “shrunken log2 fold change” value was -0.225.

For the sequence RRIRQRPPRLPRPRPRPRIQPRP, the “shrunken log2 fold change” value was -0.0402.

Take RRIRHRPPRLPRPRPRPCPWPRP: the “shrunken log2 fold change” value was -0.168.

As to RRIRFRPPRLPRPRPRPIIQPRP, the “shrunken log2 fold change” value is -0.786.

As for RRIRYRPPRLPRPRPRPTRRPRP, the “shrunken log2 fold change” value was found to be 0.358.

In the case of RRIRQRPPRLPRPRPRPQTGPRP, the “shrunken log2 fold change” value is -0.137.

With RRIRIRPPRLPRPRPRPFPWPRP, the “shrunken log2 fold change” value is -0.519.

Consider RRIRVRPPRLPRPRPRPCHVPRP, for which the “shrunken log2 fold change” value is -0.859.

With RRIRCRPPRLPRPRPRPFWHPRP, the “shrunken log2 fold change” value was -0.0854.

Consider RRIRWRPPRLPRPRPRPDSWPRP, for which the “shrunken log2 fold change” value was determined as 0.251.

RRIRPRPPRLPRPRPRPIGNPRP: the “shrunken log2 fold change” value was -0.0419.

Regarding RRIRKRPPRLPRPRPRPGNGPRP, the “shrunken log2 fold change” value stood at 0.351.

On to RRIRGRPPRLPRPRPRPDWRPRP, for which the “shrunken log2 fold change” value turned out to be 0.404.

RRIRQRPPRLPRPRPRPCAYPRP: the “shrunken log2 fold change” value is -0.0948.

For the sequence RRIRYRPPRLPRPRPRPAEVPRP, the “shrunken log2 fold change” value is -0.0361.

Regarding RRIRKRPPRLPRPRPRPHRMPRP, the “shrunken log2 fold change” value was -0.0995.

Take RRIRNRPPRLPRPRPRPQRRPRP: the “shrunken log2 fold change” value came to 0.135.

For the sequence RRIRKRPPRLPRPRPRPDSDPRP, the “shrunken log2 fold change” value was determined as 0.123.

For the sequence RRIRHRPPRLPRPRPRPMLGPRP, the “shrunken log2 fold change” value is -0.00277.

Turning to RRIRQRPPRLPRPRPRPGLHPRP, the “shrunken log2 fold change” value was -0.111.

As to RRIRRRPPRLPRPRPRPFRLPRP, the “shrunken log2 fold change” value is -0.143.

Turning to RRIRDRPPRLPRPRPRPRMSPRP, the “shrunken log2 fold change” value was -0.149.

On to RRIRMRPPRLPRPRPRPTRQPRP, for which the “shrunken log2 fold change” value turned out to be 0.886.

With RRIRDRPPRLPRPRPRPYYHPRP, the “shrunken log2 fold change” value is -0.972.

As to RRIRMRPPRLPRPRPRPPMAPRP, the “shrunken log2 fold change” value is 0.841.

As for RRIRKRPPRLPRPRPRPPDYPRP, the “shrunken log2 fold change” value is 0.145.

In the case of RRIRGRPPRLPRPRPRPCHHPRP, the “shrunken log2 fold change” value is -0.00543.

For the origin of these results see the supplement of paper PMC9112550, “Optimization of the antimicrobial peptide Bac7 by deep mutational scanning” (BMC Biology, 2022).
